In patent publication US20230212319A1, “NOVEL ANTIGEN BINDING DOMAINS AND SYNTHETIC ANTIGEN RECEPTORS INCORPORATING THE SAME” (University of Southern California, priority 2020, published 2023):
Numbering of substitutions follows the chain as printed.

B1: 22247 (protein)
chain: MALPVTALLLPLALLLHAARPACPQLGPYELWELSHGTGAVVRGAEFDIQMTQSPSSLSASVGDRVTITCKASDHINNWLAWYQQKPGQAPKLLIYGATTLETGVPSRFSGSGSGTDYTLTISSLQPEDFATYYCQQSWNTPWTFGQGTKLEIKRLEDLKNVFPPEVAVFEPSKAEIAHTQKATLVCLATGFYPDHVELSWWVNGKEVHSGVCTDPQPLKEQPALNDSRYCLSSRLRVSATFWQNPRNHFRCQVQFYGLSENDEWTQDRAKPVTQIVSAEAWGRADCGITSASYHQGVLSATILYEILLGKATLYAVLVSALVLMAMVKRKDSRGRAKRSGSGATNFSLLKQAGDVEENPGPTSATMDWIWRILFLVGAATGAHSGPQVQLQESGGGLAQAGGSLRLSCAASGRTFSMGWFRQAPGKEREFVAAITYSGGSPYYASSVRGRFTISRDNAKNTVYLQMNSLKPEDTAVYYCAANPTYGSDWNAENWGQGTQVTVSSGSGGGGSGGGGSGGGGSFEQVQLQQPGAELVKPGASVKMSCKASGYAFSSYWINWMKQKPGQGLEWIGQIYPGDGDTNYNGKFKGRATLTADTSSSTAYMQLSSLTSEDSAVYFCARSITTVVGCAMDYWGQGTSVTVSSTRIQNPDPAVYQLRDSKSSDKSVCLFTDFDSQTNVSQSKDSDVYITDKCVLDMRSMDFKSNSAVAWSNKSDFACANAFNNSIIPEDTFFPSSDVPCDVKLVEKSFETDTNLNFQNLSVIGFRILLLKVAGFNLLMTLRLWSSRAKRSGSGVKQTLNFDLLKLAGDVESNPGPSRGHMTEYKPTVRLATRDDVPRAVRTLAAAFADYPATRHTVDPDRHIERVTELQELFLTRVGLDIGKVWVADDGAAVAVWTTPESVEAGAVFAEIGPRMAELSGSRLAAQQQMEGLLAPHRPKEPAWFLATVGVSPDHQGKGLGSAVVLPGVEAAERAGVPAFLETSAPRNLPFYERLGFTVTADVEVPEGPRTWCMTRKPGA
B2: 22241 (protein)
chain: MALPVTALLLPLALLLHAARPDIQMTQSPSSLSASVGDRVTITCKASDHINNWLAWYQQKPGQAPKLLIYGATTLETGVPSRFSGSGSGTDYTLTISSLQPEDFATYYCQQSWNTPWTFGQGTKLEIKRLEDLKNVFPPEVAVFEPSEAEISHTQKATLVCLATGFYPDHVELSWWVNGKEVHSGVCTDPQPLKEQPALNDSRYCLSSRLRVSATFWQNPRNHFRCQVQFYGLSENDEWTQDRAKPVTQIVSAEAWGRADCGFTSESYQQGVLSATILYEILLGKATLYAVLVSALVLMAMVKRKDSRGRAKRSGSGATNFSLLKQAGDVEENPGPTSATMDWIWRILFLVGAATGAHSYINIYNAEPANPSEKNSPSTQYAYGSGSSYINIYNAEPANPSEKNSPSTQYAYGSGGSYINIYNAEPANPSEKNSPSTQYAYGSGSSSYINIYNAEPANPSEKNSPSTQYAYGSGSGSYINIYNAEPANPSEKNSPSTQYAYGPSGSGGGGSGGGGSGGGGSFEQVQLQQPGAELVKPGASVKMSCKASGYAFSSYWINWMKQKPGQGLEWIGQIYPGDGDTNYNGKFKGRATLTADTSSSTAYMQLSSLTSEDSAVYFCARSITTVVGCAMDYWGQGTSVTVSSTRIQNPDPAVYQLRDSKSSDKSVCLFTDFDSQTNVSQSKDSDVYITDKCVLDMRSMDFKSNSAVAWSNKSDFACANAFNNSIIPEDTFFPSPESSCDVKLVEKSFETDTNLNFQNLSVIGFRILLLKVAGFNLLMTLRLWSSRAKRSGSGVKQTLNFDLLKLAGDVESNPGPSRGHMTEYKPTVRLATRDDVPRAVRTLAAAFADYPATRHTVDPDRHIERVTELQELFLTRVGLDIGKVWVADDGAAVAVWTTPESVEAGAVFAEIGPRMAELSGSRLAAQQQMEGLLAPHRPKEPAWFLATVGVSPDHQGKGLGSAVVLPGVEAAERAGVPAFLETSAPRNLPFYERLGFTVTADVEVPEGPRTWCMTRKPGA
B3: 22243 (protein)
chain: MALPVTALLLPLALLLHAARPACQDKLTQWPKWLEGTGGGGSGGGGSGGGGSEFDIQMTQSPSSLSASVGDRVTITCKASDHINNWLAWYQQKPGQAPKLLIYGATTLETGVPSRFSGSGSGTDYTLTISSLQPEDFATYYCQQSWNTPWTFGQGTKLEIKRLEDLKNVFPPEVAVFEPSKAEIAHTQKATLVCLATGFYPDHVELSWWVNGKEVHSGVCTDPQPLKEQPALNDSRYCLSSRLRVSATFWQNPRNHFRCQVQFYGLSENDEWTQDRAKPVTQIVSAEAWGRADCGITSASYHQGVLSATILYEILLGKATLYAVLVSALVLMAMVKRKDSRGRAKRSGSGATNFSLLKQAGDVEENPGPTSATMDWIWRILFLVGAATGAHSGPQVQLQESGGGLAQAGGSLRLSCAASGRTFSMGWFRQAPGKEREFVAAITYSGGSPYYASSVRGRFTISRDNAKNTVYLQMNSLKPEDTAVYYCAANPTYGSDWNAENWGQGTQVTVSSGSGGGGSGGGGSGGGGSFEQVQLQQPGAELVKPGASVKMSCKASGYAFSSYWINWMKQKPGQGLEWIGQIYPGDGDTNYNGKFKGRATLTADTSSSTAYMQLSSLTSEDSAVYFCARSITTVVGCAMDYWGQGTSVTVSSTRIQNPDPAVYQLRDSKSSDKSVCLFTDFDSQTNVSQSKDSDVYITDKCVLDMRSMDFKSNSAVAWSNKSDFACANAFNNSIIPEDTFFPSSDVPCDVKLVEKSFETDTNLNFQNLSVIGFRILLLKVAGFNLLMTLRLWSSRAKRSGSGVKQTLNFDLLKLAGDVESNPGPSRGHMTEYKPTVRLATRDDVPRAVRTLAAAFADYPATRHTVDPDRHIERVTELQELFLTRVGLDIGKVWVADDGAAVAVWTTPESVEAGAVFAEIGPRMAELSGSRLAAQQQMEGLLAPHRPKEPAWFLATVGVSPDHQGKGLGSAVVLPGVEAAERAGVPAFLETSAPRNLPFYERLGFTVTADVEVPEGPRTWCMTRKPGA
B4: 22248 (protein)
chain: MALPVTALLLPLALLLHAARPDIQMTQSPSSLSASVGDRVTITCKASDHINNWLAWYQQKPGQAPKLLIYGATTLETGVPSRFSGSGSGTDYTLTISSLQPEDFATYYCQQSWNTPWTFGQGTKLEIKRLEDLKNVFPPEVAVFEPSEAEISHTQKATLVCLATGFYPDHVELSWWVNGKEVHSGVCTDPQPLKEQPALNDSRYCLSSRLRVSATFWQNPRNHFRCQVQFYGLSENDEWTQDRAKPVTQIVSAEAWGRADCGFTSESYQQGVLSATILYEILLGKATLYAVLVSALVLMAMVKRKDSRGRAKRSGSGATNFSLLKQAGDVEENPGPTSATMDWIWRILFLVGAATGAHSGPQLGPYELWELSHGSGPLGIAGIFEQVQLQQPGAELVKPGASVKMSCKASGYAFSSYWINWMKQKPGQGLEWIGQIYPGDGDTNYNGKFKGRATLTADTSSSTAYMQLSSLTSEDSAVYFCARSITTVVGCAMDYWGQGTSVTVSSTRIQNPDPAVYQLRDSKSSDKSVCLFTDFDSQTNVSQSKDSDVYITDKCVLDMRSMDFKSNSAVAWSNKSDFACANAFNNSIIPEDTFFPSPESSCDVKLVEKSFETDTNLNFQNLSVIGFRILLLKVAGFNLLMTLRLWSSRAKRSGSGVKQTLNFDLLKLAGDVESNPGPSRGHMTEYKPTVRLATRDDVPRAVRTLAAAFADYPATRHTVDPDRHIERVTELQELFLTRVGLDIGKVWVADDGAAVAVWTTPESVEAGAVFAEIGPRMAELSGSRLAAQQQMEGLLAPHRPKEPAWFLATVGVSPDHQGKGLGSAVVLPGVEAAERAGVPAFLETSAPRNLPFYERLGFTVTADVEVPEGPRTWCMTRKPGA
B5: 22244 (protein)
chain: MALPVTALLLPLALLLHAARPDIQMTQSPSSLSASVGDRVTITCKASDHINNWLAWYQQKPGQAPKLLIYGATTLETGVPSRFSGSGSGTDYTLTISSLQPEDFATYYCQQSWNTPWTFGQGTKLEIKRLEDLKNVFPPEVAVFEPSEAEISHTQKATLVCLATGFYPDHVELSWWVNGKEVHSGVCTDPQPLKEQPALNDSRYCLSSRLRVSATFWQNPRNHFRCQVQFYGLSENDEWTQDRAKPVTQIVSAEAWGRADCGFTSESYQQGVLSATILYEILLGKATLYAVLVSALVLMAMVKRKDSRGRAKRSGSGATNFSLLKQAGDVEENPGPTSATMDWIWRILFLVGAATGAHSGPSACPYSNPSLCSGSGGGGSGGGGSGGGGSFEQVQLQQPGAELVKPGASVKMSCKASGYAFSSYWINWMKQKPGQGLEWIGQIYPGDGDTNYNGKFKGRATLTADTSSSTAYMQLSSLTSEDSAVYFCARSITTVVGCAMDYWGQGTSVTVSSTRIQNPDPAVYQLRDSKSSDKSVCLFTDFDSQTNVSQSKDSDVYITDKCVLDMRSMDFKSNSAVAWSNKSDFACANAFNNSIIPEDTFFPSPESSCDVKLVEKSFETDTNLNFQNLSVIGFRILLLKVAGFNLLMTLRLWSSRAKRSGSGVKQTLNFDLLKLAGDVESNPGPSRGHMTEYKPTVRLATRDDVPRAVRTLAAAFADYPATRHTVDPDRHIERVTELQELFLTRVGLDIGKVWVADDGAAVAVWTTPESVEAGAVFAEIGPRMAELSGSRLAAQQQMEGLLAPHRPKEPAWFLATVGVSPDHQGKGLGSAVVLPGVEAAERAGVPAFLETSAPRNLPFYERLGFTVTADVEVPEGPRTWCMTRKPGA
B6: 22211 (protein)
chain: B5 chain with S362Q, A363L, C364G, S367E, N368L, P369W, S370E, C372S, S373H

Each molecule was assayed on RAJI cells (assay: JNG assay, co-culture with RAJI cells). Conditions: JNG cells expressing construct, co-culture with Raji.
Format: cell-based
In short: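 Read-out is NFAT-driven GFP measured by flow cytometry after ~4–18 h co-culture of SAR-expressing JNG cells with target cells (E:T about 1:2). SARs were introduced by lentiviral spinfection and selected with puromycin or blasticidin when possible; scores (+/- to 5+ ≈ 5–50% GFP+) are relative to parental JNG cells.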
With B1 the “NFAT-GFP ASSAY: Raji” value was “Raji (2+) (refer to approximately 5%, 10%, 20%, 30%, 40% and 50% GFP positive cells)”. For B2, the “NFAT-GFP ASSAY: Raji” value was “Raji (4+) (refer to approximately 5%, 10%, 20%, 30%, 40% and 50% GFP positive cells)”. With B3 the “NFAT-GFP ASSAY: Raji” value was “Raji (3+) (refer to approximately 5%, 10%, 20%, 30%, 40% and 50% GFP positive cells)”. With B4 the “NFAT-GFP ASSAY: Raji” value was “Raji (3+) (refer to approximately 5%, 10%, 20%, 30%, 40% and 50% GFP positive cells)”. In the case of B5, the “NFAT-GFP ASSAY: Raji” value is reported as “Raji (+/-) (refer to approximately 5%, 10%, 20%, 30%, 40% and 50% GFP positive cells)”. B6 was tested, and the “NFAT-GFP ASSAY: Raji” value was 2+ (refer to approximately 5%, 10%, 20%, 30%, 40% and 50% GFP positive cells).
